T1: human TIGIT protein (human, UniProt Q495A1 22-141, limits assumed)
T1 construct: Recombinant protein (Genentech) used in ELISA screening and as SPR analyte; also called TIGIT antigen
T1 sequence: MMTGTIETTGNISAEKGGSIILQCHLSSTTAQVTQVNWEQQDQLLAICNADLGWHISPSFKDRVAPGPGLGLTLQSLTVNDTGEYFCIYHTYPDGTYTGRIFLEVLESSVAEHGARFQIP

T2: HA-tagged TIGIT (human, UniProt Q495A1 22-244)
T2 sequence: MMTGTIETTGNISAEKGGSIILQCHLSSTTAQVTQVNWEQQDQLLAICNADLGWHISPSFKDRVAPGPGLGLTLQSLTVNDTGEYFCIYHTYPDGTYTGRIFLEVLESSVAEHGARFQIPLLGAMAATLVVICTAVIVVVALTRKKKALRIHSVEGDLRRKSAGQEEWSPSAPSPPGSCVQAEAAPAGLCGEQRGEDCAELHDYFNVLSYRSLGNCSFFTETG

T3: full-length human TIGIT on CHO cells (human, UniProt Q495A1 22-244)
T3 construct: also called CHO-hTIGIT; hu TIGIT
T3 sequence: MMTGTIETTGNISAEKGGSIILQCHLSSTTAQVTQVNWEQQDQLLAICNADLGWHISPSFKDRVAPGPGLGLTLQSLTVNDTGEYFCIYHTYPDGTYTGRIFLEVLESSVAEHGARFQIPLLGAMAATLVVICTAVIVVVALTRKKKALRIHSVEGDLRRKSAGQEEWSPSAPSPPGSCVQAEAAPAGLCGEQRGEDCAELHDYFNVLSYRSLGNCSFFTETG

T4: hTIGIT mutant E60A (human, UniProt Q495A1)
T4 sequence (TIGIT, looked up): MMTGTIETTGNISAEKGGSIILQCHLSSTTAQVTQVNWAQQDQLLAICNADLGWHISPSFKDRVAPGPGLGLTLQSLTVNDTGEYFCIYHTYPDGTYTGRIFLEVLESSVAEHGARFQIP

T5: hTIGIT mutant I68A (human, UniProt Q495A1)
T5 sequence (TIGIT, looked up): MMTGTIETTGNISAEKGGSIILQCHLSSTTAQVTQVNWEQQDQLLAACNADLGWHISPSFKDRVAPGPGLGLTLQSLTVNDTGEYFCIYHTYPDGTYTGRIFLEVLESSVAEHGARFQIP

T6: hTIGIT mutant H111A (human, UniProt Q495A1)
T6 sequence (TIGIT, looked up): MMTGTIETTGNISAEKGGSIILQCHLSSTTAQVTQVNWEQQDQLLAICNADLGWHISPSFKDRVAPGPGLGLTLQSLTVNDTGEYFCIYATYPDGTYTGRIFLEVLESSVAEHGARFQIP

T7: hTIGIT mutant L65A (human, UniProt Q495A1)
T7 sequence (TIGIT, looked up): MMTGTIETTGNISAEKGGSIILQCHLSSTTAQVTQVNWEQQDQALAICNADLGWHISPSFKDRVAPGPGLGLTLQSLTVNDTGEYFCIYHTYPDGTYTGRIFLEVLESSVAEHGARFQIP

T8: hTIGIT mutant T117A (human, UniProt Q495A1)
T8 sequence (TIGIT, looked up): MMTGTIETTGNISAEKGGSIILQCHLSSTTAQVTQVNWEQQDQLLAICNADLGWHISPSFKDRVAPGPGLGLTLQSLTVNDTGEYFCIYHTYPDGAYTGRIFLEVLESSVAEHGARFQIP

T9: hTIGIT mutant Q53A (human, UniProt Q495A1)
T9 sequence (TIGIT, looked up): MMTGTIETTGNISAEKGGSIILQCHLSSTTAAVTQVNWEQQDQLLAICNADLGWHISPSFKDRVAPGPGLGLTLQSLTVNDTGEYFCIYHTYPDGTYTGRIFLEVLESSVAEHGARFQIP

T10: hTIGIT mutant Y113A (human, UniProt Q495A1)
T10 sequence (TIGIT, looked up): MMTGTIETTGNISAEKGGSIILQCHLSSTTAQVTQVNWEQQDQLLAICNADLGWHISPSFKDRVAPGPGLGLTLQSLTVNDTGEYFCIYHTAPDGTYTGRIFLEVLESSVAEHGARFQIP

T11: hTIGIT mutant L73A (human, UniProt Q495A1)
T11 sequence (TIGIT, looked up): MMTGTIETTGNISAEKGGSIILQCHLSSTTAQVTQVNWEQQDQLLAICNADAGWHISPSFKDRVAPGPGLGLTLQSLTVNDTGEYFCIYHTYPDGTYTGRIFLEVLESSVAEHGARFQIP


Experiments:
human TIGIT protein [1] = biological target: T1, human TIGIT protein; assay: SPR (BIACORE), N=2
HA-tagged TIGIT = biological target: T2, HA-tagged TIGIT; assay: TR-FRET, HA-TIGIT with ST-CD226 on CHO cells; competitor CD226
Excerpt: To test for the ability of the clones to block the TIGIT-CD226 interaction, TR-FRET (Time-resolved Fluorescence Resonance Energy Transfer) was used. First, human SNAP-tagged (ST) CD226 with non-permeant donor and acceptor fluorophores was expressed and labeled using CHO cells. The human ST-CD226 was co-expressed with HA-tagged TIGIT, in the presence or the absence of the OMT- and SD-derived anti-TIGIT antibody clones.

[2] = biological target: T3, full-length human TIGIT on CHO cells; assay: FACS, PVR-Fc on CHO-TIGIT cells; competitor PVR-Fc
Procedure: These studies were further validated in CHO-TIGIT PVR blocking experiments in which TIGIT-expressing CHO cells were incubated with labeled PVR-Fc fusion protein in the presence of anti-TIGIT antibody or an human IgG1 control (FIG. 4A).

hTIGIT mutant E60A = biological target: T4, hTIGIT mutant E60A; assay: SPR (BIACORE) KD normalized to WT, N=2
hTIGIT mutant I68A = biological target: T5, hTIGIT mutant I68A; assay: SPR (BIACORE) KD normalized to WT, N=2
hTIGIT mutant H111A = biological target: T6, hTIGIT mutant H111A; assay: SPR (BIACORE) KD normalized to WT, N=2
hTIGIT mutant L65A = biological target: T7, hTIGIT mutant L65A; assay: SPR (BIACORE) KD normalized to WT, N=2
hTIGIT mutant T117A = biological target: T8, hTIGIT mutant T117A; assay: SPR (BIACORE) KD normalized to WT, N=2
[3] = biological target: cynomolgus monkey (cyno) TIGIT protein (cynomolgus monkey, UniProt A0A7N9I9V4 89-209); assay: SPR, monovalent affinity
human TIGIT protein [4] = biological target: T1, human TIGIT protein; assay: SPR, monovalent affinity
hTIGIT mutant Q53A [5] = biological target: T9, hTIGIT mutant Q53A; assay: SPR (BIACORE), N=2
hTIGIT mutant Y113A [6] = biological target: T10, hTIGIT mutant Y113A; assay: SPR (BIACORE), N=2
hTIGIT mutant L73A [7] = biological target: T11, hTIGIT mutant L73A; assay: SPR (BIACORE), N=2
hTIGIT mutant Q53A [8] = biological target: T9, hTIGIT mutant Q53A; assay: SPR (BIACORE) KD normalized to WT, N=2
hTIGIT mutant Y113A [9] = biological target: T10, hTIGIT mutant Y113A; assay: SPR (BIACORE) KD normalized to WT, N=2
hTIGIT mutant L73A [10] = biological target: T11, hTIGIT mutant L73A; assay: SPR (BIACORE) KD normalized to WT, N=2

cynomolgus monkey (cyno) TIGIT protein, sequence (A0A7N9I9V4 entry or part of it): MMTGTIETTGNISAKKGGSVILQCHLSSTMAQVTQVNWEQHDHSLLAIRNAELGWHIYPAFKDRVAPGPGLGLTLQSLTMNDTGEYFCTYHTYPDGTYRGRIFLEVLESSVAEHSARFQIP

Row | Binder | Kd (human TIGIT protein [1]) [nM] | IC50 (HA-tagged TIGIT) [nM] | IC50 [2] [nM] | Binding affinity drop vs. WT (hTIGIT mutant E60A) [fold] | Binding affinity drop vs. WT (hTIGIT mutant I68A) [fold] | Binding affinity drop vs. WT (hTIGIT mutant H111A) [fold] | Binding affinity drop vs. WT (hTIGIT mutant L65A) [fold] | Binding affinity drop vs. WT (hTIGIT mutant T117A) [fold] | Kd [3] [nM] | Kd (human TIGIT protein [4]) [nM] | Kd (hTIGIT mutant Q53A [5]) [nM] | Kd (hTIGIT mutant Y113A [6]) [nM] | Kd (hTIGIT mutant L73A [7]) [nM] | Binding affinity drop vs. WT (hTIGIT mutant Q53A [8]) [fold] | Binding affinity drop vs. WT (hTIGIT mutant Y113A [9]) [fold] | Binding affinity drop vs. WT (hTIGIT mutant L73A [10]) [fold]
1 | 10A7 (antibody, V domains shown) VH: EVQLVESGGGLTQPGKSLKLSCEASGFTFSSFTMHWVRQSPGKGLEWVAFIRSGSGIVFYADAVRGRFTISRDNAKNLLFLQMNDLKSEDTAMYYCARRPLGHNTFDSWGQGTLVTVSS VL: DIVMTQSPSSLAVSPGEKVTMTCKSSQSLYYSGVKENLLAWYQQKPGQSPKLLIYYASIRFTGVPDRFTGSGSGTDYTLTITSVQAEDMGQYFCQQGINNPLTFGDGTKLEIKR |  |  |  | 0.9 | 0.4 | 0.7 | 0.2 | 0.8 |  |  | 32 | 55.5 | > 500 | 0.7 | 1.2 | > 11
2 | 4.1D3 (antibody, V domains shown, OMT rat-derived human antibody; also called 4.1D3.Q1) VH: QVQLQQSGPGLVKPSQTLSLTCAISGDSVSSNSAAWNWIRQSPSRGLEWLGKTYYRFKWYSDYAVSVKGRITINPDTSKNQFSLQLNSVTPEDTAVFYCTRESTTYDLLAGPFDYWGQGTLVTVSS VL: not shown | 0.5 |  |  | 12.2 | 21 | 3.8 | 17.6 | 1.4 |  |  | 0.8 | 2.8 | 1.3 | 1.6 | 5.6 | 2.6

Next, values leading:

Row | Kd (human TIGIT protein [1]) [nM] | IC50 (HA-tagged TIGIT) [nM] | IC50 [2] [nM] | Binding affinity drop vs. WT (hTIGIT mutant E60A) [fold] | Binding affinity drop vs. WT (hTIGIT mutant I68A) [fold] | Binding affinity drop vs. WT (hTIGIT mutant H111A) [fold] | Binding affinity drop vs. WT (hTIGIT mutant L65A) [fold] | Binding affinity drop vs. WT (hTIGIT mutant T117A) [fold] | Kd [3] [nM] | Kd (human TIGIT protein [4]) [nM] | Kd (hTIGIT mutant Q53A [5]) [nM] | Kd (hTIGIT mutant Y113A [6]) [nM] | Kd (hTIGIT mutant L73A [7]) [nM] | Binding affinity drop vs. WT (hTIGIT mutant Q53A [8]) [fold] | Binding affinity drop vs. WT (hTIGIT mutant Y113A [9]) [fold] | Binding affinity drop vs. WT (hTIGIT mutant L73A [10]) [fold] | Binder
3 | 1.8 | 19.3 | 0.38 | 2.7 | 2.7 | 84 | 2.2 | 1.8 | 2.01 | 2.97 |  |  |  |  |  |  | 7.4A3.C96S.Q1E (antibody, V domains shown, also called 7.4A3.Q1E.C96S) VH: EVQLVQSGSDLKKPGASVRVSCKASGYTFTSYPMNWVRQAPGHGLEWMGWINTNTGNPTYVQGFTGRFVFSLDTSVNTAYLQISSLKAEDTAVYFCARTGGHTYDSYAFDVWGQGTMVTVSS VL: DIQLTQSPTFLSASVGDRVTITCRASQVISSSLAWYQQNPGKAPKLLIYAASTLQSGVPSRFSGSGSGTEFTLTISSLQPEDFVTYYCQHLHGYPSNFGQGTKVEIK
4 |  | 45 | 0.29 |  |  |  |  |  | 3.2 | 0.56 |  |  |  |  |  |  | 4.1D3.Q1E (antibody, V domains shown) VH: EVQLQQSGPGLVKPSQTLSLTCAISGDSVSSNSAAWNWIRQSPSRGLEWLGKTYYRFKWYSDYAVSVKGRITINPDTSKNQFSLQLNSVTPEDTAVFYCTRESTTYDLLAGPFDYWGQGTLVTVSS VL: not shown

Source: US20220064286A1 (Genentech, published 2022)
